# Assays:
# Conditions in all cases: both partners purified
# [1] = target: T1, HAUSP TRAF-like domain (residues 53–206) (UniProt Q93009 53-206); assay: ITC; 10 mM HEPES (pH 8.0), 100 mM NaCl; 4 °C
# T1 construct: Cloned into pGEX-2T; source: E. coli BL21(DE3), purified to homogeneity
# [2] = target: T1, HAUSP TRAF-like domain (residues 53–206); assay: SEC; gel filtration on Superdex-200 (10/30); proteins incubated at 4 °C for at least 45 min; 25 mM Tris (pH 8.0), 100 mM NaCl, 2 mM DTT; fractions on SDS-PAGE, Coomassie
# [3] = target: T2, HAUSP TRAF-like domain (residues 1–206) (UniProt Q93009 1-206); assay: as above
# T2 construct: Construct not described in the methods; source: purified to homogeneity as previously described
# T2 sequence (Q93009 1-206): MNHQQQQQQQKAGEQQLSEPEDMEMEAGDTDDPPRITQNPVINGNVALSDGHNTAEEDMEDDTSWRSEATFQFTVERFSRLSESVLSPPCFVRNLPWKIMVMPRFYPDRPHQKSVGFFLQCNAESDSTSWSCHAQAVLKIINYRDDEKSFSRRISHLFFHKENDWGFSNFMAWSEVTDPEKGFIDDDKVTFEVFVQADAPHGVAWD
# T1 sequence (Q93009 53-206): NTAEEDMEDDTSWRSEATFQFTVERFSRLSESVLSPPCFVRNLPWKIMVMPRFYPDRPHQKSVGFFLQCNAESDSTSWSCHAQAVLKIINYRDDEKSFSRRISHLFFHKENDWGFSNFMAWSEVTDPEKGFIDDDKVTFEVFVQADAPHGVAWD
binding result [2],Binder,also measured
,"ERSSSSESTGTPSNPDLDAGVSEHSGDWLDQDSVS (peptide, UniProt Q00987 208-242, looked up, human MDM2, residues 208-242; also called MDM2 (residues 208–242) peptide) [MDM2 peptide (residues 208–242)]",Kd [1]: 3000 nM
binds,"MDM2 fragment (residues 223–289) (domain or fragment, human, UniProt Q00987 223-289, looked up, source: purified to homogeneity as previously described) DLDAGVSEHSGDWLDQDSVSDQFSVEFEVESLDSEDYSLSEEGQELSDEDDEVYQVTVYQAGESDTD",
binds,"MDM2 fragment (residues 170–232) (domain or fragment, human, UniProt Q00987 170-232, looked up, source: purified to homogeneity as previously described) ENSDELSGERQRKRHKSDSISLSFDESLALCVIREICCERSSSSESTGTPSNPDLDAGVSEHS",
,"MDM2 (residues 208–289) (domain or fragment, human, UniProt Q00987 208-289, looked up, also called MDM2 fragment; source: purified to homogeneity as previously described) ERSSSSESTGTPSNPDLDAGVSEHSGDWLDQDSVSDQFSVEFEVESLDSEDYSLSEEGQELSDEDDEVYQVTVYQAGESDTD",binding result [3]: binds
